The subject of one data set is SK-Mel-2 cells. The data set can be described thus: Clonogenic assay, SK-Mel-2 cells after GPNMB siRNA. The format is cell-based, human. Here is the method: Cells were plated in 96-well plates and allowed to recover overnight. […] The cells were then transferred into 6-well plates and allowed to form colonies. Colonies were stained with Giemsa stain (Sigma) and counted. The surviving cell fractions were calculated based upon the ratio of the treated sample and the untreated control. The results were expressed as a percentage of control using GraphPad Prism Version 4 software.
The amount of GPNMB expression was reduced for at least 7 days after transfection.

For data set [1], the system named is SK-MEL-5 human melanoma xenograft. The data set can be described thus: SK-MEL-5 human melanoma xenograft in athymic mice. The class given is in vivo. Here is the method: The tumor inhibitory activity of the CR011-MMAE immunoconjugate was measured in an anti-tumor xenograft model using athymic mice, according to published methods (see Geran et al., Cancer Chemother. Rep. 3:1-104 (1972)). […] When tumors became established (10-20 days), the animals were pair-matched into groups (n=6 mice/group), and treatment was administered by intravenous injection (tail vein).
The SK-MEL-2 human melanoma (ATCC #HTB-68) was derived from a metastatic site (skin of thigh) of a person with malignant melanoma, and the SK− MEL-5 human melanoma (ATCC #HTB-70) was derived from a metastatic site (axillary lymph node) of a person with malignant melanoma (see Fogh et al., J. Natl. Cancer Inst. 59: 221-226 (1977)). Both cell lines were obtained from the American Type Culture Collection.
The effects of treatment were monitored by repetitive tumor measurements across 2 diameters with Vernier calipers; tumor size (in mg) was calculated using a standard formula, (W^2×L)/2, assuming a specific gravity of 1.0. Tumor size and body weights were assessed twice weekly. Mice were examined daily, however, and moribund animals were humanely euthanized if clinical indications of excessive pain or distress were noted (i.e., prostration, hunched posture, paralysis/paresis, distended abdomen, ulcerations, abscesses, seizures, and/or hemorrhages) Animals with tumors exceeding 2,000 mg were removed from the study and euthanized humanely.
Soon after the commencement of treatment with paclitaxel, however, significant tumor growth inhibition was observed (P≦0.039) at day 3 after treatment began, and this anti-tumor effect continued, producing 100% growth inhibition (stasis). The responses of SK-MEL-5-bearing test animals to vinblastine and paclitaxel were short-lived. After cessation of treatment at the maximally tolerated doses, tumors resumed rapid, progressive growth.
On the technique in general: A xenograft is tissue or cells of one species grown in another, often human tumour cells in immunodeficient mice.

In a further data set the target is T1, GPNMB (Homo sapiens, UniProt Q14956).
T1 construct: we cloned the human CG56972 extracellular domain (ECD; aa 23-480); made in house; host or cells: HEK 293 cells
T1 sequence (Q14956 23-492): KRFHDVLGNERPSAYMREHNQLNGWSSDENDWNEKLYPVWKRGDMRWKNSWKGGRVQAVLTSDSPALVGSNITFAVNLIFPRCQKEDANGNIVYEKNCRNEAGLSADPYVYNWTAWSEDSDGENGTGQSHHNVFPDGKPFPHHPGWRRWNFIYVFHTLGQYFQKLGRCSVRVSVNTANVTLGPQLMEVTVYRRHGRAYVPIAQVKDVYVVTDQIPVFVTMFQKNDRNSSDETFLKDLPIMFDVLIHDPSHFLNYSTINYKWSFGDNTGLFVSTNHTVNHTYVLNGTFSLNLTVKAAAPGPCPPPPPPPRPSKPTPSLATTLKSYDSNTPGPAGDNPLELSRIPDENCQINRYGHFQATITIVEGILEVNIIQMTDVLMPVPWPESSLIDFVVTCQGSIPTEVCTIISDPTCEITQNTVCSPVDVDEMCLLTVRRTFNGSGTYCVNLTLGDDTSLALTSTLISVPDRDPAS
The data set can be described thus: ELISA of hybridoma supernatants for binding to GPNMB. Here is the method: After 14 days of culture, hybridoma supernatants were screened for GPNMB specific monoclonal antibodies. In the Primary screen, the ELISA plates (Fisher, Cat. No. 12-565-136) were coated with 50 μL/well of GPNMB (1 μg/mL) in Coating Buffer (0.1 M Carbonate Buffer, pH 9.6, NaHCO3 8.4 g/L), then incubated at 4° C. overnight. After incubation, the plates were washed with Washing Buffer (0.05% Tween 20 in PBS) three times. 200 μL/well Blocking Buffer (0.5% BSA, 0.1% Tween 20, 0.01% Thimerosal in 1×PBS) were added and the plates were incubated at room temperature for 1 h. After incubation, the plates were washed with Washing Buffer three times. Aliquots (50 μL/well) of hybridoma supernatants and positive and negative controls were added, and the plates were incubated at room temperature for 2 h. The positive control used throughout was serum from the relevant GPNMB immunized XenoMouse® mouse and the negative control was serum from the KLH-immunized relevant strain of XenoMouse® mouse. After incubation, the plates were washed three times with Washing Buffer. 100 μL/well of detection antibody goat anti-huIgGfc-HRP (Caltag, Cat. No. H10507, using concentration was 1:2000 dilution) was added and the plates were incubated at room temperature for 1 hour. After incubation, the plates were washed three times with Washing Buffer. 100 μl/well of TMB (BioFX Lab. Cat. No. TMSK-0100-01) was added, and the plates were allowed to develop for about 10 minutes (until negative control wells barely started to show color). 50 μl/well stop solution (TMB Stop Solution (BioFX Lab. Cat. No. STPR-0100-01) was then added and the plates were read on an ELISA plate reader at a wavelength of 450 nm.
Hybridoma supernatants were screened for binding to GPNMB by ELISA as described above in Example 2.

The test system of data set [2] is Lymphoma or leukemia cell lines. The data set can be described thus: Clonogenic assay (methylcellulose) with 1.15.1-AE, lymphoma and leukemia panel. The class given is cell-based, human. On the procedure:
Lymphoma or leukemia cell lines were mixed with methylcellulose base media (R&D Systems, USA) and in various concentrations of unconjugated and Auristatin E-conjugated 1.15.1 antibody before plating onto 6-well tissue culture plates (Becton Dickinson, Franklin Lakes, N.J., USA). […] Plates were incubated at 37° C. and examined daily. On days 14-18, colonies on the plates were counted.

“CR011-vcMMAE: CR011 conjugated to monomethyl auristatin E through a protease cleavable valine-citrulline linker; approx. 4 drugs per antibody”: the “sensitivity of SK-Mel-2 cells to growth-inhibitory activity following siRNA-mediated GPNMB knockdown” value with SK-Mel-2 cells is reported as “less sensitive”. For the same substance, in data set [1] (10 mg/kg/treatment, compared to PBS-treated controls (P=0.039)), the “earliest significant anti-tumor effects, time after treatment began” value is listed as 10 days. Besides, the “doses at which complete regressions occurred” value in data set [1] (i.v., q4d×4) is recorded as ≥ 2.5 mg/kg. For the same substance, the “anti-tumor effect (in words)” value in data set [1] (i.v., CR011-vcMMAE 1.25 to 20 mg/kg q4d×4, vinblastine […] q4d×4) was “Substantial tumor growth inhibition, as well as tumor growth delay and complete regressions”. For the same substance, the “toxicity (mortality, body weight or weight gain)” value in data set [1] (mouse, in vivo) is “no indication of toxicity”.

With “CR011: fully human monoclonal antibody that specifically binds to GPNMB; VH SEQ ID NO: 20, VL SEQ ID NO: 29”, the “Avg OD” value worked out at 0.168 with GPNMB (antibody at 12.3 ng/mL); 0.381 with GPNMB (antibody at 37 ng/mL); 0.701 with GPNMB (antibody at 111 ng/mL); 0.902 with GPNMB (antibody at 333 ng/mL); 1.051 with GPNMB (antibody at 1 μg/mL); 1.159 in the data set with GPNMB (antibody at 3 μg/mL). Further, the “effect on growth of all antigen positive hematopoietic cell lines (in words)” value in data set [2] is reported as “no effect on growth”.

Values taken from patent US20130244255A1, “ANTIBODIES DIRECTED TO GPNMB AND USES THEREOF” (priority 2006, published 2013).
